# Source: paper PMC10776578, “Epstein-Barr virus-driven B cell lymphoma mediated by a direct LMP1-TRAF6 complex” (Nature Communications, 2024)
# B1: unnamed (parent)
# chain 1: DHQIRELTAKMETQSMYVSELKRTIRTLEDKVAEIEAQQCNGIYIWKIGNFGMHLKCQEEEKPVVIHSPGFYTGKPGYKLCMRLHLQLPTAQRCANYISLFVHTMQGEYDSHLPWPFQGTIRLTILDQSEAPVRQNHEEIMDAKPELLAFQRPTIPRNPKGFGYVTFMHLEALRQRTFIKDDTLLVRCEVSTRFDMGSLRREGFQPRSTDAGV
# chain 2: KKVAKKPTNKAPHPKQEPQEINFPDDLPGSNTAAPVQETLHGCQPVTQEDGKESRISVQERQ
# B2: unnamed (parent)
# chain 1: B1 chain 1
# chain 2: LIWMYYHGQRHSDEHHHDDSLPHPQQATDDSGHESDSNSNEGRHHLLVSGAGDGPPLCSQNLGAPGGGPDNGPQDPDNTDDNGPQDPDNTDDNGPHDPLPQDPDNTDDNGPQDPDNTDDNGPHDPLPHSPSDSAGNDGGPPQLTEEVENKGGDQGPPLMTDGGGGHSHDSGHGGGDPHLPTLLLGSSGSGGDDDDPHGPVQLSYYD
# B3: unnamed (parent)
# chain 1: B1 chain 1
# chain 2: GGGPYAQGEDARMLSLVSKTEIEEDSFRQMPTEDEYMDRPSQ
# Variants of: B1
# Test: AlphaScreen
# Conditions: with partner chain of the complex shown; parent: 100; read off a plot
row,Variant,percent of parent [%]
1,chain 1 DHQIRELTAKMETQSMYVSELKRTIRTLEDKVAEIEAQQCNGIYIWKIGNFGMHLKCQEEEKPVVIHSPGFYTGKPGYKLCMRLHLQLPTAQRCANYISLFVHTMQGEYDSHLPWPFQGTIRLTILDQSEAPVRQNHEEIMDAKPELLAFQRPTIPRNPKGAGYVTFMHLEALRQRTFIKDDTLLVRCEVSTRFDMGSLRREGFQPRSTDAGV [chain 1 F162A],1
2,chain 1 DHQIRELTAKMETQSMYVSELKRTIRTLEDKVAEIEAQQCNGIYIWKIGNFGMHLKCQEEEKPVVIHSPGFYTGKPGYKLCMALHLQLPTAQRCANYISLFVHTMQGEYDSHLPWPFQGTIRLTILDQSEAPVRQNHEEIMDAKPELLAFQRPTIPRNPKGFGYVTFMHLEALRQRTFIKDDTLLVRCEVSTRFDMGSLRREGFQPRSTDAGV [chain 1 R83A],85
3,chain 1 DHQIRELTAKMETQSMYVSELKRTIRTLEDKVAEIEAQQCNGIYIWKIGNFGMHLKCQEEEKPVVIHSPGFYTGKPGYKLCMRLHLQLPTAQRCANYISLFVHTMQGEYDSHLPWPFQGTIRLTILDQSEAPVRQNHEEIMDAKPELLAFQRPTIPRNPAGFGYVTFMHLEALRQRTFIKDDTLLVRCEVSTRFDMGSLRREGFQPRSTDAGV [chain 1 K160A],90
4,chain 1 DHQIRELTAKMETQSMYVSELKRTIRTLEDKVAEIEAQQCNGIYIWKIGNFGMHLKCQEEEKPVVIHSPGFYTGKPGYKLCMRLHLQLPTAQRCANYISLFVHTMQGEYDSHLPWPFQGTIRLTILDQSEAPVRQNHEEIMDAKPELLAFQRPTIPRNPKGFGAVTFMHLEALRQRTFIKDDTLLVRCEVSTRFDMGSLRREGFQPRSTDAGV [chain 1 Y164A],1

# Variants of: B2
# Test: AlphaScreen
# Conditions: with partner chain of the complex shown; parent: 100; read off a plot
row,Variant,percent of parent [%]
1,chain 1 DHQIRELTAKMETQSMYVSELKRTIRTLEDKVAEIEAQQCNGIYIWKIGNFGMHLKCQEEEKPVVIHSPGFYTGKPGYKLCMRLHLQLPTAQRCANYISLFVHTMQGEYDSHLPWPFQGTIRLTILDQSEAPVRQNHEEIMDAKPELLAFQRPTIPRNPKGAGYVTFMHLEALRQRTFIKDDTLLVRCEVSTRFDMGSLRREGFQPRSTDAGV [chain 1 F162A],5
2,chain 1 DHQIRELTAKMETQSMYVSELKRTIRTLEDKVAEIEAQQCNGIYIWKIGNFGMHLKCQEEEKPVVIHSPGFYTGKPGYKLCMALHLQLPTAQRCANYISLFVHTMQGEYDSHLPWPFQGTIRLTILDQSEAPVRQNHEEIMDAKPELLAFQRPTIPRNPKGFGYVTFMHLEALRQRTFIKDDTLLVRCEVSTRFDMGSLRREGFQPRSTDAGV [chain 1 R83A],4
3,chain 1 DHQIRELTAKMETQSMYVSELKRTIRTLEDKVAEIEAQQCNGIYIWKIGNFGMHLKCQEEEKPVVIHSPGFYTGKPGYKLCMRLHLQLPTAQRCANYISLFVHTMQGEYDSHLPWPFQGTIRLTILDQSEAPVRQNHEEIMDAKPELLAFQRPTIPRNPAGFGYVTFMHLEALRQRTFIKDDTLLVRCEVSTRFDMGSLRREGFQPRSTDAGV [chain 1 K160A],100

# Same assay, conditions: with partner chain of the complex shown; 100 nM His-TRAF6; parent: 100; read off a plot
row,Variant,percent of parent [%]
1,chain 2 LIWMYYHGQRHSDEHHHDDSLPHPQQATDDSGHESDSNSNEGRHHLLVSGAGDGPPLCSQNLGAPGGGPDNGPQDPDNTDDNGPQDPDNTDDNGPHDPLPQDPDNTDDNGPQDPDNTDDNGPHDPLPHSPSDSAGNDGGPPQLTEEVENKGGDQGPPLMTDGGGGHSHDSGHGGGDPHLPTLLLGSSGSGGDDDDPHAPVQLSYYD [chain 2 G198A],75
2,chain 2 LIWMYYHGQRHSDEHHHDDSLPHPQQATDDSGHESDSNSNEGRHHLLVSGAGDGPPLCSQNLGAPGGGPDNGPQDPDNTDDNGPQDPDNTDDNGPHDPLPQDPDNTDDNGPQDPDNTDDNGPHDPLPHSPSDSAGNDGGPPQLTEEVENKGGDQGPPLMTDGGGGHSHDSGHGGGDPHLPTLLLGSSGSGGDDDDPHGAVQLSYYD [chain 2 P199A],18
3,chain 2 LIWMYYHGQRHSDEHHHDDSLPHPQQATDDSGHESDSNSNEGRHHLLVSGAGDGPPLCSQNLGAPGGGPDNGPQDPDNTDDNGPQDPDNTDDNGPHDPLPQDPDNTDDNGPQDPDNTDDNGPHDPLPHSPSDSAGNDGGPPQLTEEVENKGGDQGPPLMTDGGGGHSHDSGHGGGDPHLPTLLLGSSGSGGDDDDPHGPVQLSYAD [chain 2 Y205A],47
4,chain 2 LIWMYYHGQRHSDEHHHDDSLPHPQQATDDSGHESDSNSNEGRHHLLVSGAGDGPPLCSQNLGAPGGGPDNGPQDPDNTDDNGPQDPDNTDDNGPHDPLPQDPDNTDDNGPQDPDNTDDNGPHDPLPHSPSDSAGNDGGPPQLTEEVENKGGDQGPPLMTDGGGGHSHDSGHGGGDPHLPTLLLGSSGSGGDDDDPHGPVQASYYD [chain 2 L202A],100
5,chain 2 LIWMYYHGQRHSDEHHHDDSLPHPQQATDDSGHESDSNSNEGRHHLLVSGAGDGPPLCSQNLGAPGGGPDNGPQDPDNTDDNGPQDPDNTDDNGPHDPLPQDPDNTDDNGPQDPDNTDDNGPHDPLPHSPSDSAGNDGGPPQLTEEVENKGGDQGPPLMTDGGGGHSHDSGHGGGDPHLPTLLLGSSGSGGDDDDPHGPVQLAYYD [chain 2 S203A],94
6,chain 2 LIWMYYHGQRHSDEHHHDDSLPHAQAAADDSGHESDSNSNEGRHHLLVSGAGDGPPLCSQNLGAPGGGPDNGPQDPDNTDDNGPQDPDNTDDNGPHDPLPQDPDNTDDNGPQDPDNTDDNGPHDPLPHSPSDSAGNDGGPPQLTEEVENKGGDQGPPLMTDGGGGHSHDSGHGGGDPHLPTLLLGSSGSGGDDDDPHGPVQLSYYD [chain 2 P24A Q26A T28A],83
7,chain 2 V200A,15
8,chain 2 Y204A,11
9,chain 2 Q201A,7

# Same assay, conditions: with partner chain of the complex shown; 300 nM His-TRAF6; parent: 100; read off a plot
row,Variant,percent of parent [%]
1,chain 2 LIWMYYHGQRHSDEHHHDDSLPHPQQATDDSGHESDSNSNEGRHHLLVSGAGDGPPLCSQNLGAPGGGPDNGPQDPDNTDDNGPQDPDNTDDNGPHDPLPQDPDNTDDNGPQDPDNTDDNGPHDPLPHSPSDSAGNDGGPPQLTEEVENKGGDQGPPLMTDGGGGHSHDSGHGGGDPHLPTLLLGSSGSGGDDDDPHAPVQLSYYD [chain 2 G198A],84
2,chain 2 LIWMYYHGQRHSDEHHHDDSLPHPQQATDDSGHESDSNSNEGRHHLLVSGAGDGPPLCSQNLGAPGGGPDNGPQDPDNTDDNGPQDPDNTDDNGPHDPLPQDPDNTDDNGPQDPDNTDDNGPHDPLPHSPSDSAGNDGGPPQLTEEVENKGGDQGPPLMTDGGGGHSHDSGHGGGDPHLPTLLLGSSGSGGDDDDPHGAVQLSYYD [chain 2 P199A],19
3,chain 2 LIWMYYHGQRHSDEHHHDDSLPHPQQATDDSGHESDSNSNEGRHHLLVSGAGDGPPLCSQNLGAPGGGPDNGPQDPDNTDDNGPQDPDNTDDNGPHDPLPQDPDNTDDNGPQDPDNTDDNGPHDPLPHSPSDSAGNDGGPPQLTEEVENKGGDQGPPLMTDGGGGHSHDSGHGGGDPHLPTLLLGSSGSGGDDDDPHGPVQLSYAD [chain 2 Y205A],65
4,chain 2 LIWMYYHGQRHSDEHHHDDSLPHPQQATDDSGHESDSNSNEGRHHLLVSGAGDGPPLCSQNLGAPGGGPDNGPQDPDNTDDNGPQDPDNTDDNGPHDPLPQDPDNTDDNGPQDPDNTDDNGPHDPLPHSPSDSAGNDGGPPQLTEEVENKGGDQGPPLMTDGGGGHSHDSGHGGGDPHLPTLLLGSSGSGGDDDDPHGPVQASYYD [chain 2 L202A],98
5,chain 2 LIWMYYHGQRHSDEHHHDDSLPHPQQATDDSGHESDSNSNEGRHHLLVSGAGDGPPLCSQNLGAPGGGPDNGPQDPDNTDDNGPQDPDNTDDNGPHDPLPQDPDNTDDNGPQDPDNTDDNGPHDPLPHSPSDSAGNDGGPPQLTEEVENKGGDQGPPLMTDGGGGHSHDSGHGGGDPHLPTLLLGSSGSGGDDDDPHGPVQLAYYD [chain 2 S203A],88
6,chain 2 LIWMYYHGQRHSDEHHHDDSLPHAQAAADDSGHESDSNSNEGRHHLLVSGAGDGPPLCSQNLGAPGGGPDNGPQDPDNTDDNGPQDPDNTDDNGPHDPLPQDPDNTDDNGPQDPDNTDDNGPHDPLPHSPSDSAGNDGGPPQLTEEVENKGGDQGPPLMTDGGGGHSHDSGHGGGDPHLPTLLLGSSGSGGDDDDPHGPVQLSYYD [chain 2 P24A Q26A T28A],98
7,chain 2 V200A,15
8,chain 2 Y204A,10
9,chain 2 Q201A,6

# Same assay, conditions: with partner chain of the complex shown; 1000 nM His-TRAF6; parent: 100; read off a plot
row,Variant,percent of parent [%]
1,chain 2 LIWMYYHGQRHSDEHHHDDSLPHPQQATDDSGHESDSNSNEGRHHLLVSGAGDGPPLCSQNLGAPGGGPDNGPQDPDNTDDNGPQDPDNTDDNGPHDPLPQDPDNTDDNGPQDPDNTDDNGPHDPLPHSPSDSAGNDGGPPQLTEEVENKGGDQGPPLMTDGGGGHSHDSGHGGGDPHLPTLLLGSSGSGGDDDDPHAPVQLSYYD [chain 2 G198A],96
2,chain 2 LIWMYYHGQRHSDEHHHDDSLPHPQQATDDSGHESDSNSNEGRHHLLVSGAGDGPPLCSQNLGAPGGGPDNGPQDPDNTDDNGPQDPDNTDDNGPHDPLPQDPDNTDDNGPQDPDNTDDNGPHDPLPHSPSDSAGNDGGPPQLTEEVENKGGDQGPPLMTDGGGGHSHDSGHGGGDPHLPTLLLGSSGSGGDDDDPHGAVQLSYYD [chain 2 P199A],21
3,chain 2 LIWMYYHGQRHSDEHHHDDSLPHPQQATDDSGHESDSNSNEGRHHLLVSGAGDGPPLCSQNLGAPGGGPDNGPQDPDNTDDNGPQDPDNTDDNGPHDPLPQDPDNTDDNGPQDPDNTDDNGPHDPLPHSPSDSAGNDGGPPQLTEEVENKGGDQGPPLMTDGGGGHSHDSGHGGGDPHLPTLLLGSSGSGGDDDDPHGPVQLSYAD [chain 2 Y205A],84
4,chain 2 LIWMYYHGQRHSDEHHHDDSLPHPQQATDDSGHESDSNSNEGRHHLLVSGAGDGPPLCSQNLGAPGGGPDNGPQDPDNTDDNGPQDPDNTDDNGPHDPLPQDPDNTDDNGPQDPDNTDDNGPHDPLPHSPSDSAGNDGGPPQLTEEVENKGGDQGPPLMTDGGGGHSHDSGHGGGDPHLPTLLLGSSGSGGDDDDPHGPVQASYYD [chain 2 L202A],98
5,chain 2 LIWMYYHGQRHSDEHHHDDSLPHPQQATDDSGHESDSNSNEGRHHLLVSGAGDGPPLCSQNLGAPGGGPDNGPQDPDNTDDNGPQDPDNTDDNGPHDPLPQDPDNTDDNGPQDPDNTDDNGPHDPLPHSPSDSAGNDGGPPQLTEEVENKGGDQGPPLMTDGGGGHSHDSGHGGGDPHLPTLLLGSSGSGGDDDDPHGPVQLAYYD [chain 2 S203A],90
6,chain 2 LIWMYYHGQRHSDEHHHDDSLPHAQAAADDSGHESDSNSNEGRHHLLVSGAGDGPPLCSQNLGAPGGGPDNGPQDPDNTDDNGPQDPDNTDDNGPHDPLPQDPDNTDDNGPQDPDNTDDNGPHDPLPHSPSDSAGNDGGPPQLTEEVENKGGDQGPPLMTDGGGGHSHDSGHGGGDPHLPTLLLGSSGSGGDDDDPHGPVQLSYYD [chain 2 P24A Q26A T28A],92
7,chain 2 V200A,14
8,chain 2 Y204A,9
9,chain 2 Q201A,4

# Same assay, conditions: with partner chain of the complex shown
row,Variant,Kd [nM]
1,chain 2 LIWMYYHGQRHSDEHHHDDSLPHPQQATDDSGHESDSNSNEGRHHLLVSGAGDGPPLCSQNLGAPGGGPDNGPQDPDNTDDNGPQDPDNTDDNGPHDPLPQDPDNTDDNGPQDPDNTDDNGPHDPLPHSPSDSAGNDGGPPQLTEEVENKGGDQGPPLMTDGGGGHSHDSGHGGGDPHLPTLLLGSSGSGGDDDDPHGPVQLSFYD [chain 2 Y204F],21.7

# Variants of: B3
# Test: AlphaScreen
# Conditions: with partner chain of the complex shown; parent: 100; read off a plot
row,Variant,percent of parent [%]
1,chain 1 DHQIRELTAKMETQSMYVSELKRTIRTLEDKVAEIEAQQCNGIYIWKIGNFGMHLKCQEEEKPVVIHSPGFYTGKPGYKLCMRLHLQLPTAQRCANYISLFVHTMQGEYDSHLPWPFQGTIRLTILDQSEAPVRQNHEEIMDAKPELLAFQRPTIPRNPKGAGYVTFMHLEALRQRTFIKDDTLLVRCEVSTRFDMGSLRREGFQPRSTDAGV [chain 1 F162A],1

# Same assay, conditions: with partner chain of the complex shown
row,Variant,Kd [nM]
1,chain 2 GGGPYAQGEDARMLSLVSKTEIEEDSFRQMPTQDEYMDRPSQ,15.6
